The record followed here is PMC11390915, “Histones and histone variant families in prokaryotes” (Nature Communications, 2024).

The data set deals with the molecule itself. The data set can be described thus: crystal structure; HTkC at 4.0 mg/mL in 50 mM Tris-HCl pH 7.0, 100 mM KCl, 10% glycerol; sitting drop vapor diffusion, reservoir 0.01 M trisodium citrate, 33% (w/v) PEG 6000; space group P2(1)2(1)2(1), 1.84 Å; four monomers in the asymmetric unit.

B1: face-to-face (FtF) histone from Thermococcus kodakarensis (HTkC) (natural protein)
chain: MAEMLVKSKVKEFVKSVDPEMRVSPEFYDALEAEVKALVEKAIKRAQAEGRKTLYARHV
notes: Face-to-face (FtF) histone HTkC of Thermococcus kodakarensis, product of gene TK1040; synthesized gene cloned into pET30b (plasmid pRD503); The purification used heat, heparin and SEC only, so the protein is probably untagged (surmised); Oligonucleotides for cloning are in the Supplementary Information; also called FtF histone HTkC; TK1040; source: E. coli BL21(DE3)pLysS, purified (heating at 70 …)
The term stoichiometry N denotes the number of molecules, sites or subunits per partner or assembly. In the case of B1, the “stoichiometry N” value came out at 4.
